From patent publication US20240317841A1
Residue numbers refer to the chain shown, from its start.

B1: FHF11 (antibody, V domains shown)
VH: QVQLQQSGPGLVKPSQTLSVTCGISGDSVSSHSAAWNWIRQSPSRGLEWLGRTYYRSKWYNDYAVSVKSRITINPDTSKNQFSLQLISVTPEDTAVYYCARVGAMTFGLLTGGMDVWGQGTTVTVSS
VL: EIVLTQSPGTQSLSPGERATLSCRASQSLSRSYLAWYQQRPGKPPRLLIYGASSRATGIPDRFSGSGSGTDFSLTISSLEPEDSAMYFCQYYGDSPLFSFGPGTKVDIK
B2: FHF11v9 (antibody, V domains shown)
VH: B1 VH with H32Y, K58G
VL: B1 VL
B3: FHF11v3 (antibody, V domains shown)
VH: B1 VH with H32Y
VL: B1 VL
B4: FHF12 (antibody, V domains shown)
VH: B1 VH with G23A, I87V, M105A, L109I
VL: B1 VL with E17D
B5: FHF11v6 (antibody, V domains shown)
VH: B1 VH with K58G
VL: B1 VL

Tests used:
[1] = target: HA from an H1N1 Swine Eurasian avian-like (EA) strain, A/Swine/Jiangsu/J004/2018 (influenza A virus (H1N1, A/Swine/Jiangsu/J004/2018)); assay: flow cytometry, HA on mammalian cells; mock 7.62 [Cont'd]
[2] = target: H16 (Influenza A virus); assay: flow cytometry, HA on mammalian cells; mock cells 0.96 [cont'd]
[3] = target: H15 (Influenza A virus); assay: as above
[4] = target: H17 (Influenza A virus); assay: as above
[5] = target: H14 (Influenza A virus); assay: as above
[6] = target: H18 (Influenza A virus); assay: as above
[7] = target: HA from an H1N1 Swine Eurasian avian-like (EA) strain, A/Swine/Jiangsu/J004/2018 (influenza A virus (H1N1, A/Swine/Jiangsu/J004/2018)); assay: flow cytometry, HA on mammalian cells; mock 3.31 [Cont'd]
[8] = target: H5 hemagglutinin (influenza A virus); assay: BLI, HA-5; printed as kdis
[9] = target: H7 hemagglutinin (influenza A virus); assay: BLI, HA-7; printed as kdis
[10] = target: H1-CAL (Influenza A virus); assay: FACS, HA on mammalian cells; 2nd only 7.4
[11] = target: H16 (Influenza A virus); assay: FACS, HA on mammalian cells; 2nd only 6.9
[12] = target: H10 (Influenza A virus); assay: FACS, HA on mammalian cells; 2nd only 8.7
[13] = target: H4 (Influenza A virus); assay: flow cytometry, HA on mammalian cells; mock cells 0.96
[14] = target: H11 (Influenza A virus); assay: as above
[15] = target: H8 (Influenza A virus); assay: as above
[16] = target: H12 (Influenza A virus); assay: as above
[17] = target: H13 (Influenza A virus); assay: as above
[18] = target: H10 (Influenza A virus); assay: as above
[19] = target: H15 (Influenza A virus); assay: FACS, HA on mammalian cells; 2nd only 12
[20] = target: H14 (Influenza A virus); assay: FACS, HA on mammalian cells; 2nd only 12
[21] = target: H13 (Influenza A virus); assay: FACS, HA on mammalian cells; 2nd only 12
[22] = target: HA from an H1N1 Swine Eurasian avian-like (EA) strain, A/Swine/Jiangsu/J004/2018 (influenza A virus (H1N1, A/Swine/Jiangsu/J004/2018)); assay: flow cytometry, HA on mammalian cells; mock 4.30
[23] = target: HA from an H1N1 Swine Eurasian avian-like (EA) strain, A/Swine/Jiangsu/J004/2018 (influenza A virus (H1N1, A/Swine/Jiangsu/J004/2018)); assay: flow cytometry, HA on mammalian cells; mock 4.41
[24] = target: H7 hemagglutinin (influenza A virus); assay: BLI, HA-7
[25] = target: H4 (Influenza A virus); assay: FACS, HA on mammalian cells; 2nd only 11
[26] = target: H8 (Influenza A virus); assay: FACS, HA on mammalian cells; 2nd only 7.9
[27] = target: H12 (Influenza A virus); assay: FACS, HA on mammalian cells; 2nd only 9.7
[28] = target: H5 hemagglutinin (influenza A virus); assay: BLI, HA-5
[29] = target: H1-SC (Influenza A virus); assay: FACS, HA on mammalian cells; 2nd only 7.5
[30] = target: H17 (Influenza A virus); assay: FACS, HA on mammalian cells; 2nd only 4.1
[31] = target: H18 (Influenza A virus); assay: FACS, HA on mammalian cells; 2nd only 5.5
[32] = target: H11 (Influenza A virus); assay: FACS, HA on mammalian cells; 2nd only 8.1
[33] = target: H7 hemagglutinin (influenza A virus); assay: BLI, HA-7; given as kdis
[34] = target: H5 hemagglutinin (influenza A virus); assay: BLI, HA-5; given as kdis
[35] = target: H7 hemagglutinin (influenza A virus); assay: BLI, HA-7 [Cont'd]
[36] = target: H5 hemagglutinin (influenza A virus); assay: BLI, HA-5 [Cont'd]
[37] = target: H4 (Influenza A virus); assay: flow cytometry, HA on mammalian cells; mock cells 1.12
[38] = target: H11 (Influenza A virus); assay: as above
[39] = target: H8 (Influenza A virus); assay: as above
[40] = target: H12 (Influenza A virus); assay: as above
[41] = target: H13 (Influenza A virus); assay: as above
[42] = target: H10 (Influenza A virus); assay: as above
[43] = target: H16 (Influenza A virus); assay: flow cytometry, HA on mammalian cells; mock cells 1.12 [cont'd]
[44] = target: H15 (Influenza A virus); assay: as above
[45] = target: H17 (Influenza A virus); assay: as above
[46] = target: H14 (Influenza A virus); assay: as above
[47] = target: H18 (Influenza A virus); assay: as above

| Binder | Alexa 647-A+ (percent of cells) at 0.4 µg/ml [1] | Alexa 647-A+ (percent of cells) at 2 µg/ml [7] | koff [8] | koff [9] | % cells binding to HA [10] | % cells binding to HA [11] | % cells binding to HA [12] | % cells binding to HA [19] | % cells binding to HA [20] | % cells binding to HA [21] | Alexa 647-A+ (percent of cells) at 10 µg/ml [23] | Kd [24] | kon [24] | % cells binding to HA [25] | % cells binding to HA [26] | % cells binding to HA [27] | % cells binding to HA [29] | % cells binding to HA [30] | % cells binding to HA [31] | % cells binding to HA [32] | also measured |
| --- | --- | --- | --- | --- | --- | --- | --- | --- | --- | --- | --- | --- | --- | --- | --- | --- | --- | --- | --- | --- | --- |
| B1 | 84.5 | 89.2 | < 1e-07 s⁻¹ | 4.95e-05 s⁻¹ | 88% | 20% | 82% | 76% | 79% | 79% | 90.7 | 2.03 nM | 24400 M⁻¹ s⁻¹ | 54% | 80% | 86% | 83% | 82% | 80% | 62% | percent of cells in the gate [2]: 23.2; percent of cells in the gate [3]: 75.6; percent of cells in the gate [4]: 98.2; percent of cells in the gate [5]: 75.2; percent of cells in the gate [6]: 94.3; percent of cells in the gate [13]: 40.6; percent of cells in the gate [14]: 42.7; percent of cells in the gate [15]: 89.2; percent of cells in the gate [16]: 79.1; percent of cells in the gate [17]: 75.8; percent of cells in the gate [18]: 89.7; Alexa 647-A+ (percent of cells) at 50 µg/ml [22]: 90.7; Kd [28]: < 0.001 nM; kon [28]: 19900 M⁻¹ s⁻¹ |
| B2 | – | – | – | – | 85% | 13% | 79% | 63% | 70% | 75% | – | – | – | 47% | 78% | 86% | 80% | 82% | 78% | 59% | koff [33]: 0.000193 s⁻¹; koff [34]: < 1e-07 s⁻¹; Kd [35]: 9.76 nM; kon [35]: 19800 M⁻¹ s⁻¹; Kd [36]: < 0.001 nM; kon [36]: 16200 M⁻¹ s⁻¹ |
| B3 | – | – | < 1e-07 s⁻¹ | 0.000118 s⁻¹ | 84% | 22% | 77% | 66% | 70% | 79% | – | 5.11 nM | 23000 M⁻¹ s⁻¹ | 48% | 78% | 85% | 82% | 82% | 79% | 59% | Kd [28]: < 0.001 nM; kon [28]: 16400 M⁻¹ s⁻¹ |
| B4 | 85.1 | 90.5 | – | – | – | – | – | – | – | – | 90.6 | – | – | – | – | – | – | – | – | – | percent of cells in the gate [37]: 72.2; percent of cells in the gate [38]: 37.8; percent of cells in the gate [39]: 89.6; percent of cells in the gate [40]: 75.3; percent of cells in the gate [41]: 79.2; percent of cells in the gate [42]: 88.5; percent of cells in the gate [43]: 25.7; percent of cells in the gate [44]: 77.2; percent of cells in the gate [45]: 98; percent of cells in the gate [46]: 80.4; percent of cells in the gate [47]: 94.8 |
| B5 | – | – | – | – | 85% | 11% | 82% | 75% | 70% | 69% | – | – | – | 49% | 77% | 87% | 82% | 82% | 79% | 59% | koff [33]: 0.000169 s⁻¹; koff [34]: < 1e-07 s⁻¹; Kd [35]: 10.4 nM; kon [35]: 16400 M⁻¹ s⁻¹; Kd [36]: < 0.001 nM; kon [36]: 13600 M⁻¹ s⁻¹ |
